Data on 2 substances can be found in publication doi:10.1101/2022.06.24.497451.

The test concerns the target SMC3CC/RAD21N complex (human).

SMC1ACC-R57A/RAD21C complex registered a loss of ATPase activity compared to the WT complex when SMC3CC/RAD21N was added of 10%.

Regarding SMC1ACC-Δ58-62/RAD21C complex, the loss of ATPase activity compared to the WT complex when SMC3CC/RAD21N was added worked out at 10%.
